This is an account of results in patent US20030054004A1 (published 2003).

The target of assay [1] is human lymphotoxin (TNFβ) (human) (UniProt P01374). Briefly: cell-based or functional assay.
The target of the next assay is recombinant human TNFα (human, UniProt P01375 77-233). Briefly: cell-based or functional assay.
Chain of recombinant human TNFα (P01375 77-233): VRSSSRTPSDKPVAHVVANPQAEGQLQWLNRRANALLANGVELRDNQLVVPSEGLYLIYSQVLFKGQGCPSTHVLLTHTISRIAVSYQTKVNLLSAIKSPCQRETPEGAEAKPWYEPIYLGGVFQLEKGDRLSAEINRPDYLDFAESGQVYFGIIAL

Chain of human lymphotoxin (TNFβ) (human) (P01374 35-205 limits assumed): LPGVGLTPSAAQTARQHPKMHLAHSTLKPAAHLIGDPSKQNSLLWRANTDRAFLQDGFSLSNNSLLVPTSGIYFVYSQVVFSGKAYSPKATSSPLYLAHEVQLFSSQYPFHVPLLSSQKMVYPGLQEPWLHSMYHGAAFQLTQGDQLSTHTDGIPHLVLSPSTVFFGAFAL

“p75P-sf2 (p75 extracellular domain lacking the C-terminal 53 amino acids, fused to the IgG1 heavy chain) (from UniProt P20333 23-204) (Fc fusion)”: the concentration to half-inhibit human TNFβ at 2 pM, WEHI 164 cytotoxicity in assay [1] is 31 pM.

B1: p55-sf3 (p55 / IgG1 heavy chain fusion lacking the CH1 domain) (Fc fusion, human, not shown: a dimerising Fc or GST)
heavy: QVCPQGKYIHPQNNSICCTKCHKGTYLYNDCPGPGQDTDCRECESGSFTASENHLRHCLSCSKCRKEMGQVEISSCTVDRDTVCGCRKNQYRHYWSENLFQCFNCSLCLNGTVHLSCQEKQNTVCTCHAGFFLRENECVSCSNCKKSLECTKLCLPQIGTLVTVSS
As for B1, the “IC50: concentration of fusion protein required to inhibit 2 ng/ml (39.2 pM) TNFα by 50%, WEHI 164 cytotoxicity” value with recombinant human TNFα was determined as 100 pM.

B2: p75P-sf3 (as p75P-sf2 but lacking the CH1 domain) (Fc fusion, human, not shown: a dimerising Fc or GST)
heavy: QLPAQVAFTPYAPEPGSTCRLREYYDQTAQMCCSKCSPGQHAKVFCTKTSDTVCDSCEDSTYTQLWNWVPECLSCGSRCSSDQVETQACTREQNRICTCRPGWYCALSKQEGCRLCAPLRKCRPGFGVARPGTETSDVVCKPCAPGTFSNTTSSTDICRPHQICNVVAIPGNASMDAVCTSTSGTLVTVSS
In the case of B2, the “IC50: concentration of fusion protein required to inhibit 2 ng/ml (39.2 pM) TNFα by 50%, WEHI 164 cytotoxicity” value in the assay with recombinant human TNFα worked out at 130 pM.

B3: chimeric mouse/human IgG1 anti-platelet mAb (7E3) (antibody, INN chains, looked up, V domains shown)
VH: EVQLQQSGTVLARPGASVKMSCEASGYTFTNYWMHWVKQRPGQGLEWIGAIYPGNSDTSYIQKFKGKAKLTAVTSTTSVYMELSSLTNEDSAVYYCTLYDGYYVFAYWGQGTLVTVSA
VL: EIVLTQSPVTLSVTPGDSVSLSCRASRDISNNLHWFQQTSHESPRLLIKYASQSMSGIPSRFSGSGSGTDFTLSINSVETEDFGMYFCQQTNSWPYTFGGGTKLEIK
modifications: IgG1
Turning to B3, in the assay with recombinant human TNFα, the IL-6 in supernatant of FS-4 fibroblasts; TNF 0.3 ng/ml, 4 µg/ml antibody is 1.6 ng/mL; the IL-6 in supernatant of FS-4 fibroblasts; TNF 1.5 ng/ml, 4 µg/ml antibody is 1.96 ng/mL; the IL-6 in supernatant of FS-4 fibroblasts; TNF 7.5 ng/ml, 4 µg/ml antibody was found to be 2.16 ng/mL.
